Assay results taken from paper PMC2911377.

Target: amino terminal enhancer of Split (AES), HA tagged (human) (UniProt Q08117)
UniProt Q08117, sequence (Q08117 whole entry): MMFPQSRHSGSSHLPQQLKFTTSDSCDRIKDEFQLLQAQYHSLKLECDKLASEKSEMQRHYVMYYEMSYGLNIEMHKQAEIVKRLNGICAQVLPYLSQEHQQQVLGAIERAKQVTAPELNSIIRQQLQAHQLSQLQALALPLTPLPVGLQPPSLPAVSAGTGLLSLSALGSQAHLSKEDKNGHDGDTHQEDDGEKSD

Substance: GFP-LRP6-ICD-myc-NLS (wild type LRP6-ICD with a nuclear localization signal) (domain or fragment)
- repression of AES mediated TOP (TOPflash, TCF/LEF-1 luciferase reporter) transcription in HEK 293T cells co-transfected with AES-HA and GFP-LRP6-ICD-NLS, 24 hrs: 138%
